Measured values published in article PMC10397247.
Each block holds one binder with its values, some of them ahead of it.

Legend:
Test in all cases: two-hybrid library CCNG1;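 also: natural log of median RNA to DNA barcode read ratio; higher means stronger binding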
4H3185-bN = biological target: T1, 4H3185-bN
T1 chain: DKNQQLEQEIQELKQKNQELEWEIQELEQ

4H3427-bN = biological target: T2, 4H3427-bN
T2 chain: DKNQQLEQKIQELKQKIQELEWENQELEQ

4H3112-bN = biological target: T3, 4H3112-bN
T3 chain: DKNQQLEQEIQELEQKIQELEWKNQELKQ

4H1845-bN = biological target: T4, 4H1845-bN
T4 chain: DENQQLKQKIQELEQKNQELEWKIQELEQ

4H2576-bN = biological target: T5, 4H2576-bN
T5 chain: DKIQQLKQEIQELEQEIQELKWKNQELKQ

4H2667-bN = biological target: T6, 4H2667-bN
T6 chain: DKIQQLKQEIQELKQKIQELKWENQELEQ

4H619-bN = biological target: T7, 4H619-bN
T7 chain: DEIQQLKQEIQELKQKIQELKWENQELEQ

4H3606-bN = biological target: T8, 4H3606-bN
T8 chain: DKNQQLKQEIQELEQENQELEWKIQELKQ

4H338-bN = biological target: T9, 4H338-bN
T9 chain: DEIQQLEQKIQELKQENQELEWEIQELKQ

4H72-bN = biological target: T10, 4H72-bN
T10 chain: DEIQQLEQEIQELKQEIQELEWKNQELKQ

4H607-bN = biological target: T11, 4H607-bN
T11 chain: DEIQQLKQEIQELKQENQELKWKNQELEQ

4H2729-bN = biological target: T12, 4H2729-bN
T12 chain: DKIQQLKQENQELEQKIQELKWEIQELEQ

4H331-bN = biological target: T13, 4H331-bN
T13 chain: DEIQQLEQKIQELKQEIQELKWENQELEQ

4H717-bN = biological target: T14, 4H717-bN
T14 chain: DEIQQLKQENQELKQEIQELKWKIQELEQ

4H570-bN = biological target: T15, 4H570-bN
T15 chain: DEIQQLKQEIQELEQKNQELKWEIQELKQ

4H687-bN = biological target: T16, 4H687-bN
T16 chain: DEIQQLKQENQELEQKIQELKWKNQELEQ

4H4001-bN = biological target: T17, 4H4001-bN
T17 chain: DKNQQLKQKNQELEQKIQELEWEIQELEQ

4H918-bN = biological target: T18, 4H918-bN
T18 chain: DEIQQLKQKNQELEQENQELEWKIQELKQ

4H2610-bN = biological target: T19, 4H2610-bN
T19 chain: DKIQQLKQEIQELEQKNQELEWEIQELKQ

4H967-bN = biological target: T20, 4H967-bN
T20 chain: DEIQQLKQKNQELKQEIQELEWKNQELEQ

4H754-bN = biological target: T21, 4H754-bN
T21 chain: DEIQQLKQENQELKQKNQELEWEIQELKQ

4H2588-bN = biological target: T22, 4H2588-bN
T22 chain: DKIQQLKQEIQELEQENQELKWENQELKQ

4H3189-bN = biological target: T23, 4H3189-bN
T23 chain: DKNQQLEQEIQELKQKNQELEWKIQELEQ

4H462-bN = biological target: T24, 4H462-bN
T24 chain: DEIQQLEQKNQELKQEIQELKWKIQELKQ

4H3843-bN = biological target: T25, 4H3843-bN
T25 chain: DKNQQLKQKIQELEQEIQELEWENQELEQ

4H953-bN = biological target: T26, 4H953-bN
T26 chain: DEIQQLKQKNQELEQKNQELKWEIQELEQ

4H797-bN = biological target: T27, 4H797-bN
T27 chain: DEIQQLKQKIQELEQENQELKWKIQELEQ

4H3855-bN = biological target: T28, 4H3855-bN
T28 chain: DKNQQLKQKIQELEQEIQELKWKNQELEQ

4H908-bN = biological target: T29, 4H908-bN
T29 chain: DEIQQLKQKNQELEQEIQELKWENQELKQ

4H370-bN = biological target: T30, 4H370-bN
T30 chain: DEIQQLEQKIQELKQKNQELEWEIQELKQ

4H883-bN = biological target: T31, 4H883-bN
T31 chain: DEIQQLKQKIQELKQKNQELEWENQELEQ

4H3782-bN = biological target: T32, 4H3782-bN
T32 chain: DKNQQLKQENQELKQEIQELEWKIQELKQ

4H3354-bN = biological target: T33, 4H3354-bN
T33 chain: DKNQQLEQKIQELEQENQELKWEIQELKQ

4H2618-bN = biological target: T34, 4H2618-bN
T34 chain: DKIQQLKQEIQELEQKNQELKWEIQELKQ

4H2697-bN = biological target: T35, 4H2697-bN
T35 chain: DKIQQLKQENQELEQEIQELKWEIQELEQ

4H454-bN = biological target: T36, 4H454-bN
T36 chain: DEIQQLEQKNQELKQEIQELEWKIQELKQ

4H568-bN = biological target: T37, 4H568-bN
T37 chain: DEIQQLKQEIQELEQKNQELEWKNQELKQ

4H2442-bN = biological target: T38, 4H2442-bN
T38 chain: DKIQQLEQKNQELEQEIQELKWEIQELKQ

4H2931-bA = biological target: T39, 4H2931-bA
T39 chain: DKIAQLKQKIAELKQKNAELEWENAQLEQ

4H2692-bA = biological target: T40, 4H2692-bA
T40 chain: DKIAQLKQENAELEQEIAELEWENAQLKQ

- interaction score (4H3185-bN): -0.558
- interaction score (4H3427-bN): -1.53
- interaction score (4H3112-bN): -0.777
- interaction score (4H1845-bN): 0.0957
- interaction score (4H2576-bN): -1.34
- interaction score (4H2667-bN): 0.755
- interaction score (4H619-bN): -0.153
- interaction score (4H3606-bN): -0.857
- interaction score (4H338-bN): -0.586
- interaction score (4H72-bN): -0.603
- interaction score (4H607-bN): -1.09
- interaction score (4H2729-bN): -0.274
- interaction score (4H331-bN): -1.66
- interaction score (4H717-bN): -0.951
- interaction score (4H570-bN): -2.11
- interaction score (4H687-bN): -1.5
- interaction score (4H4001-bN): -1
- interaction score (4H918-bN): -1.04
- interaction score (4H2610-bN): -0.755
- interaction score (4H967-bN): -1.31
- interaction score (4H754-bN): -1.28
- interaction score (4H2588-bN): -1.62
- interaction score (4H3189-bN): -0.856
- interaction score (4H462-bN): -0.741
- interaction score (4H3843-bN): -0.731
- interaction score (4H953-bN): -1.04
- interaction score (4H797-bN): -0.559
- interaction score (4H3855-bN): -0.717
- interaction score (4H908-bN): -0.834
- interaction score (4H370-bN): -1.16
- interaction score (4H883-bN): -0.686
- interaction score (4H3782-bN): -1.24
- interaction score (4H3354-bN): -0.397
- interaction score (4H2618-bN): -0.877
- interaction score (4H2697-bN): -1.96
- interaction score (4H454-bN): -0.965
- interaction score (4H568-bN): -1.33
- interaction score (4H2442-bN): -0.755
B1: 4H1845-bN (peptide)
chain: DENQQLKQKIQELEQKNQELEWKIQELEQ

- interaction score (4H3185-bN): -1.14
- interaction score (4H3427-bN): -0.236
- interaction score (4H3112-bN): -0.821
- interaction score (4H2576-bN): -0.32
- interaction score (4H2667-bN): 0.241
- interaction score (4H338-bN): -0.476
- interaction score (4H72-bN): -0.588
- interaction score (4H607-bN): -1.3
- interaction score (4H2729-bN): 0.367
- interaction score (4H331-bN): 0.796
- interaction score (4H2931-bA): 0.256
- interaction score (4H717-bN): -1.28
- interaction score (4H687-bN): -0.717
- interaction score (4H4001-bN): 0.0198
- interaction score (4H918-bN): -0.127
- interaction score (4H967-bN): -0.892
- interaction score (4H754-bN): -0.65
- interaction score (4H953-bN): -0.933
- interaction score (4H797-bN): -0.491
- interaction score (4H2692-bA): -0.104
- interaction score (4H3855-bN): -0.731
- interaction score (4H908-bN): -0.788
- interaction score (4H883-bN): -0.738
- interaction score (4H3782-bN): 0.148
- interaction score (4H3354-bN): -0.568
- interaction score (4H2618-bN): 0.706
- interaction score (4H454-bN): 0.883
- interaction score (4H568-bN): -0.89
- interaction score (4H2442-bN): -0.216
B2: 4H2442-bN (peptide)
chain: DKIQQLEQKNQELEQEIQELKWEIQELKQ
